Patent publication US11230581B2, “Peptides and combination of peptides for use in immunotherapy against ovarian cancer and other cancers” (Immatics Biotechnologies GmbH, priority 2015, dated 2022)

What follows are substances tested against HLA-A*02:01 (Homo sapiens, UniProt P04439, D140Y/D185E/D98H/E176V/E277Q/G131W/G231S/I119V/I121R/I166T/I218V/L300P/L318F/N151K/N90K/P208A/P217A/Q86G/Q94H/R138H/R169H/T345S) (assay: MHC binding assay (UV-ligand exchange, β2m ELISA, peptide exchange yield)). Conditions: binding of HLA-class I restricted peptides to HLA-A*02:01, UV-ligand exchange.
How it was run: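 Peptide-MHC complexes formed by UV-ligand exchange, cleaving a UV-sensitive placeholder peptide in favour of the test peptide. Exchange yield measured by ELISA: monomers diluted 100-fold onto streptavidin-coated plates, 1 h 37 °C, detected with 2 ug/ml HRP anti-β2m and TMB, absorbance at 450 nm.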

Peptide exchange (MHC class I binding score, peptide exchange yield)	Substance
“++” (≥20% = ++)	377 (FLLDSSASV; listed as Homo sapiens) [compound 377]
“+++” (≥50 = +++)	378 (ALGYFVPYV; listed as Homo sapiens) [compound 378]
“++” (≥20% = ++)	379 (IMEGTLTRV; listed as Homo sapiens) [compound 379]
“++” (≥20% = ++)	380 (TLIEDEIATI; listed as Homo sapiens) [compound 380]
“++” (≥20% = ++)	381 (FIDEAYVEV; listed as Homo sapiens) [compound 381]
“++” (≥20% = ++)	382 (ALQNYIKEA; listed as Homo sapiens) [compound 382]
“+++” (≥50 = +++)	383 (ALLELENSVTL; listed as Homo sapiens) [compound 383]
“+++” (≥50 = +++)	384 (ILFANPNIFV; listed as Homo sapiens) [compound 384]
“++” (≥20% = ++)	385 (SLLEQGLVEA; listed as Homo sapiens) [compound 385]
“+++” (≥50 = +++)	386 (ILFRYPLTI; listed as Homo sapiens) [compound 386]
“++++” (≥75% = ++++)	387 (ALFQATAEV; listed as Homo sapiens) [compound 387]
“+++” (≥50 = +++)	388 (SLTIDGIRYV; listed as Homo sapiens) [compound 388]
“++” (≥20% = ++)	389 (LLADVTHLL; listed as Homo sapiens) [compound 389]
“+++” (≥50 = +++)	390 (ALFMKQIYL; listed as Homo sapiens) [compound 390]
“+++” (≥50 = +++)	391 (YVYPQRLNFV; listed as Homo sapiens) [compound 391]
“++” (≥20% = ++)	392 (ALLHPQGFEV; listed as Homo sapiens) [compound 392]
“++” (≥20% = ++)	393 (GLLDTQTSQVLTA; listed as Homo sapiens) [compound 393]
“+++” (≥50 = +++)	394 (LLAVIGGLVYL; listed as Homo sapiens) [compound 394]
“++++” (≥75% = ++++)	395 (ALALGGIAVV; listed as Homo sapiens) [compound 395]
“+++” (≥50 = +++)	396 (ALLPDLPAL; listed as Homo sapiens) [compound 396]
“+++” (≥50 = +++)	397 (YLFGERLLEC; listed as Homo sapiens) [compound 397]
“++” (≥20% = ++)	398 (KLLEEDGTIITL; listed as Homo sapiens) [compound 398]

Peptide exchange (MHC class I binding score, peptide exchange yield)	Substance
“+++” (≥50 = +++)	399 (YLFEPLYHV; listed as Homo sapiens) [compound 399]
“++” (≥20% = ++)	400 (SLLTEQDLWTV; listed as Homo sapiens) [compound 400]
“+++” (≥50 = +++)	401 (ILLDDTGLAYI; listed as Homo sapiens) [compound 401]
“++” (≥20% = ++)	402 (VLFSGALLGL; listed as Homo sapiens) [compound 402]
“++” (≥20% = ++)	403 (KLYDRILRV; listed as Homo sapiens) [compound 403]
“++” (≥20% = ++)	405 (ALYDVFLEV; listed as Homo sapiens) [compound 405]
“+++” (≥50 = +++)	407 (YLMDLINFL; listed as Homo sapiens) [compound 407]
“++” (≥20% = ++)	408 (VLDDSIYLV; listed as Homo sapiens) [compound 408]
“++” (≥20% = ++)	409 (LLDAMNYHL; listed as Homo sapiens) [compound 409]
“++” (≥20% = ++)	412 (YLDDLNEGVYI; listed as Homo sapiens) [compound 412]
“+++” (≥50 = +++)	426 (RLADKSVLV; listed as Homo sapiens) [compound 426]
“+++” (≥50 = +++)	427 (ALLPLSPYL; listed as Homo sapiens) [compound 427]
“++” (≥20% = ++)	428 (KLGHTDILVGV; listed as Homo sapiens) [compound 428]
“++” (≥20% = ++)	429 (GLVNDLARV; listed as Homo sapiens) [compound 429]
“+++” (≥50 = +++)	430 (HLYSSIEHLTT; listed as Homo sapiens) [compound 430]
“++” (≥20% = ++)	431 (SLVNVVPKL; listed as Homo sapiens) [compound 431]
“++” (≥20% = ++)	432 (TLIEESAKV; listed as Homo sapiens) [compound 432]
“+++” (≥50 = +++)	433 (AMLNEPWAV; listed as Homo sapiens) [compound 433]
“++” (≥20% = ++)	434 (KVSNSGITRV; listed as Homo sapiens) [compound 434]
“+++” (≥50 = +++)	436 (HLAEVSAEV; listed as Homo sapiens) [compound 436]
“+++” (≥50 = +++)	437 (SMAPGLVIQAV; listed as Homo sapiens) [compound 437]
“++++” (≥75% = ++++)	438 (KLLPLAGLYL; listed as Homo sapiens) [compound 438]

Peptide exchange (MHC class I binding score, peptide exchange yield)	Substance
“+++” (≥50 = +++)	439 (YLLQEIYGI; listed as Homo sapiens) [compound 439]
“++” (≥20% = ++)	440 (ALADGVTMQV; listed as Homo sapiens) [compound 440]
“+++” (≥50 = +++)	441 (ALLENPKMEL; listed as Homo sapiens) [compound 441]
“+++” (≥50 = +++)	442 (GLLGGGGVLGV; listed as Homo sapiens) [compound 442]
“+++” (≥50 = +++)	443 (GLWEIENNPTV; listed as Homo sapiens) [compound 443]
“+++” (≥50 = +++)	444 (GLLRDEALAEV; listed as Homo sapiens) [compound 444]
“+++” (≥50 = +++)	446 (QLIPALAKV; listed as Homo sapiens) [compound 446]
“++” (≥20% = ++)	447 (QLVPALAKV; listed as Homo sapiens) [compound 447]
“+++” (≥50 = +++)	448 (NLLETKLQL; listed as Homo sapiens) [compound 448]
“+++” (≥50 = +++)	449 (KLAEGLDIQL; listed as Homo sapiens) [compound 449]
“+++” (≥50 = +++)	450 (FMIDASVHPTL; listed as Homo sapiens) [compound 450]
“++” (≥20% = ++)	451 (LLLLDTVTMQV; listed as Homo sapiens) [compound 451]
“+++” (≥50 = +++)	452 (ILLEHGADPNL; listed as Homo sapiens) [compound 452]
“++” (≥20% = ++)	453 (KLLEATSAV; listed as Homo sapiens) [compound 453]
“+++” (≥50 = +++)	454 (KLPPPPPQA; listed as Homo sapiens) [compound 454]
“++” (≥20% = ++)	455 (SLLKEPQKVQL; listed as Homo sapiens) [compound 455]
“+++” (≥50 = +++)	456 (LLIGHLERV; listed as Homo sapiens) [compound 456]
“+++” (≥50 = +++)	457 (SLLPGNLVEKV; listed as Homo sapiens) [compound 457]
“++” (≥20% = ++)	458 (SLIDKLYNI; listed as Homo sapiens) [compound 458]
“++” (≥20% = ++)	459 (ALITEVVRL; listed as Homo sapiens) [compound 459]
“++++” (≥75% = ++++)	460 (AMLEKNYKL; listed as Homo sapiens) [compound 460]
“++” (≥20% = ++)	461 (VMFRTPLASV; listed as Homo sapiens) [compound 461]
